Experimental findings from the supplement of paper PMC12042874 are described below.

± gives the uncertainty stated by the source.

This data set can be described thus: amyloid nucleation score (Sup35N fusion, yeast selection) (log enrichment); library NNK2; higher = more nucleation; inactive = no reads after selection. The method, boiled down:
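Peptides of 20 random codons fused to Sup35N were expressed in psi-negative yeast, induced 24 hours with 100 μM copper sulfate, then grown 7 days at 30°C on medium lacking adenine and uracil. Input and output plasmid inserts were Illumina-sequenced. Nucleation score is the DiMSum log enrichment of output over input reads, centred on the mode score of non-aggregating sequences, excluding sequences with under 100 input reads. Random libraries had three technical output replicates.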
In turn, AQNLGFHEMGLAKCCRVGLY displayed an amyloid nucleation score of 0.233 ± 0.44.

Consider AQVDGSISSSSVVSVLKSEV, for which the amyloid nucleation score was -0.262 ± 0.36.

The substance ARCIQVMVIGISWRVGCMPT had an amyloid nucleation score of 0.521 ± 0.36.

Turning to ARCNCL, the amyloid nucleation score worked out at 0.559 ± 0.49.

With ARDNQMARDI, the amyloid nucleation score is 2.83 ± 0.15.

AREHPKY had an amyloid nucleation score of 0.645 ± 0.14.

ARFASIWVWTLGDCWRKCSY returned an amyloid nucleation score of -0.152 ± 0.76.

ARFFGFYYPTTGIPGNYGFC: the amyloid nucleation score is -0.315 ± 1.

Consider ARHMHSASYNYTGTRSYSFY, for which the amyloid nucleation score was 5.56 ± 0.091.

Take ARNPDFRCDSASI: the amyloid nucleation score is -0.146 ± 1.

Turning to ARSLTKSLARYRGRMQMTGP, the amyloid nucleation score came out at 0.929 ± 0.3.

ARTRLALWGLQRRGSPVFDN came in with an amyloid nucleation score of 0.157 ± 0.63.

On to ARTSLCESTWPTNVRIGPKS, for which the amyloid nucleation score worked out at 0.498 ± 0.64.

For the substance ASAAAHVRIYQMIFVFERQL, the amyloid nucleation score was 0.001 ± 0.48.

For the substance ASASSVIAMRNRMGGLNRFC, the amyloid nucleation score is -0.302 ± 0.24.

Consider ASEGVGCFV, for which the amyloid nucleation score result is “inactive”.

Consider ASGKWHSCAGSGDYM, for which the amyloid nucleation score was -0.453 ± 0.33.

The substance ASGLLPDLDVEKEDRCGIYE showed an amyloid nucleation score of 0.859 ± 0.52.

On to ASHLVVTLVNKVKCNAVVRG, for which the amyloid nucleation score came to 0.758 ± 0.21.

In turn, ASILMSRKTMGSNRHCSFVG registered an amyloid nucleation score of 0.345 ± 0.3.

On to ASKSYIITSSCRASLTVSSL, for which the amyloid nucleation score entry was “inactive”.

In turn, ASMDSSVPRAGDAGRSDMSS showed an amyloid nucleation score of 2.26 ± 0.14.

ASSFMSDGRT showed an amyloid nucleation score of 0.35 ± 0.56.

In the case of ASSNLNDTYITIDADSVHRR, the amyloid nucleation score came out at 0.033 ± 0.49.

Consider ASTFYMVGSIG, for which the amyloid nucleation score turned out to be 2.8 ± 0.083.

ASYQRSCILRRFTFVSCILI displayed an amyloid nucleation score of 1.56 ± 0.17.

Regarding ATDVCKKLWFALLVSVLVSS, the amyloid nucleation score was found to be 0.642 ± 0.48.

Consider ATESIMLLPYNTDPSMTWLT, for which the amyloid nucleation score came out at 0.227 ± 0.55.

On to ATFFILRTYGVWVTSIKRRS, for which the amyloid nucleation score stood at 0.157 ± 1.

The substance ATYPVSATGSGELWVDRGQE showed an amyloid nucleation score of 0.603 ± 0.38.

AVATGNTCSPVSVRKSLGQS returned an amyloid nucleation score of 1.87 ± 0.13.

In turn, AVELGSGGALSRDKLQGQDG came in with an amyloid nucleation score of 0.791 ± 0.74.

Turning to AVEQWQ, the amyloid nucleation score is 1.58 ± 0.37.

As for AVLPSIDYGCEPRL, the amyloid nucleation score stood at 0.136 ± 0.5.

In the case of AVMWTK, the amyloid nucleation score turned out to be 0.669 ± 0.52.

The substance AVPGVC yielded an amyloid nucleation score of 0.72 ± 0.26.

In turn, AVYYGSMWLGQGGIVPW had an amyloid nucleation score of 1.93 ± 0.15.

For the substance AWNLFLFQSRL, the amyloid nucleation score is 4.7 ± 0.073.

Regarding AWSLFYRLLPPWNE, the amyloid nucleation score was -0.656 ± 1.1.

For AWTAETFKVLCVVMSY, the amyloid nucleation score stood at 0.382 ± 0.24.

Take AWVYSMRQVYQLNCLDQIMY: the amyloid nucleation score result is “inactive”.

In turn, AWWRGPSFFNPSWKCMNDSS registered an amyloid nucleation score of -0.84 ± 0.54.

On to AYAHH, for which the amyloid nucleation score was found to be 4.08 ± 0.072.

In turn, AYMNWCTLKMRR registered an amyloid nucleation score of -0.063 ± 0.28.

Consider AYMVDLYYTVWPGIVLLYM, for which the amyloid nucleation score came out at 0.152 ± 0.44.

Consider AYRQMYTGNVR, for which the amyloid nucleation score came out at 3.97 ± 0.067.

On to AYSFDKHKNKGLSTASVGHM, for which the amyloid nucleation score came to 0.894 ± 0.55.

As to AYSIFVFYTYVTTHLRHITR, the amyloid nucleation score result was “inactive”.

AYWVQGCLLQMRMT came in with an amyloid nucleation score of 0.891 ± 0.22.

Consider CADFSGLFG, for which the amyloid nucleation score entry is “inactive”.

On to CAEAFVMGFSSKGGVINRAL, for which the amyloid nucleation score worked out at 2.1 ± 0.12.

Turning to CAGRFRCFLMSCIDCKLGVL, the amyloid nucleation score is -0.763 ± 1.

CALSVVTIHFCHTRAPGTPL had an amyloid nucleation score of 3.65 ± 0.082.

In turn, CAPQSGKLGG returned an amyloid nucleation score of 1.01 ± 0.59.

As for CAQVRLQSAFIYSYMASVGR, the amyloid nucleation score is 3.32 ± 0.056.

As to CAWFLTRWTVLSDLEGFY, the amyloid nucleation score was -1.35 ± 0.49.

CCAQWSNFACSV gave an amyloid nucleation score of 5.392 ± 0.038.

With CCCWRECDNKRSRTLHCEAW, the amyloid nucleation score stood at 0.557 ± 0.66.

Substance CCDNY came in with an amyloid nucleation score of -0.778 ± 0.54.

For CCFRLLGYAGN, the amyloid nucleation score was -0.961 ± 0.5.

For CCGLGELNLALLRELSWRVG, the amyloid nucleation score was 1.34 ± 0.25.

In turn, CCHHR returned an amyloid nucleation score of 1.08 ± 0.28.

Turning to CCKMGRRDLRFLSDFVLCKL, the amyloid nucleation score result is “inactive”.

In the case of CCNQEVLD, the amyloid nucleation score was 0.575 ± 0.66.

In turn, CCWAVWDLRGFTRGWRLRRG gave an amyloid nucleation score of 0.509 ± 0.16.

For the substance CDCWYFKC, the amyloid nucleation score worked out at 5.42 ± 0.095.

CDGAPSRLGRGLWGWSIMYG: the amyloid nucleation score came out at 0.921 ± 0.51.

Regarding CDKQRFSRF, the amyloid nucleation score entry is “inactive”.

With CDLLVPQRYSAGLPLPVVKE, the amyloid nucleation score was found to be 1.8 ± 0.24.

As to CDMEHTV, the amyloid nucleation score is -0.302 ± 0.61.

CDRFYSSLVNSVGYCLLNAY had an amyloid nucleation score of 1.47 ± 0.21.

As for CDRLELRN, the amyloid nucleation score is 0.065 ± 0.43.

For the substance CDSVVKRIFGTFAGVHLHME, the amyloid nucleation score was -0.228 ± 1.1.

Substance CDVGFSHRYSSNYDKTWDMI returned an amyloid nucleation score of -0.7 ± 0.78.

In the case of CDYEYGCQNKRGFRMLLKSW, the amyloid nucleation score result was “inactive”.

Turning to CECETVSLTFEHWCTRGRLG, the amyloid nucleation score was determined as 5.156 ± 0.047.

For CEFQILSN, the amyloid nucleation score is -0.381 ± 0.56.

Substance CERGLFFVMY displayed an amyloid nucleation score of -1.15 ± 1.1.

In turn, CERLNAPHLHQVRIPKRYNM yielded an amyloid nucleation score of 0.306 ± 0.64.

Consider CERWRFI, for which the amyloid nucleation score was -0.02 ± 1.1.

On to CFAVAKEWLNAAVHGVGQFP, for which the amyloid nucleation score was determined as 0.123 ± 0.38.

With CFDKLAVMACKSSGWHNPPT, the amyloid nucleation score came out at 0.75 ± 0.43.

Turning to CFDPGTNRCLPWAVGVGELG, the amyloid nucleation score turned out to be 0.959 ± 0.74.

For CFFRKMPHCRLTTWRRVASI, the amyloid nucleation score was determined as 0.675 ± 0.25.

For CFLELYSWFKDAVTTFN, the amyloid nucleation score entry is “inactive”.

On to CFLGLYGDIASIFNQ, for which the amyloid nucleation score is -0.889 ± 0.45.

CFMYT came in with an amyloid nucleation score of -0.415 ± 0.21.

On to CFSCFIASGDT, for which the amyloid nucleation score is 7.439 ± 0.026.

For CFVQLCACRYTIRNWGFRWL, the amyloid nucleation score result is “inactive”.

For the substance CFVSNRDYDF, the amyloid nucleation score was found to be 0.773 ± 0.42.

In turn, CGKCWCEVD showed an amyloid nucleation score of 0.359 ± 0.37.

As for CHDMSSACLYSVGWS, the amyloid nucleation score result is “inactive”.

As for CHISLTKWCRFRVV, the amyloid nucleation score is -0.014 ± 0.76.

CHLLSRSCKFYGD showed an amyloid nucleation score of -0.898 ± 1.1.

CHNNFNCPNVLVFLARELSI: the amyloid nucleation score was 4.99 ± 0.079.

Turning to CHNNFVYRGNAPRRHLEQGV, the amyloid nucleation score is 0.062 ± 0.77.

As for CHVYYVQFVLAD, the amyloid nucleation score was -0.604 ± 0.76.

Consider CIFGMDKHTYQHVVHSTLLV, for which the amyloid nucleation score turned out to be 0.181 ± 0.16.

As for CIFYKVGLFFPCWYIVSVLS, the amyloid nucleation score is -2.03 ± 0.75.

For CIKLRR, the amyloid nucleation score result was “inactive”.

On to CILLGSWLVNFYVWWSRMPI, for which the amyloid nucleation score is -0.031 ± 1.

For the substance CISKLKFLGCRVE, the amyloid nucleation score entry was “inactive”.

For the substance CITSSSLCSDPYLCLSAKNL, the amyloid nucleation score result is “inactive”.

As to CKALQLLKGNLIDYCVPFLV, the amyloid nucleation score was -1.05 ± 0.48.

Turning to CKCYTAQCWVSRNLMKRPLT, the amyloid nucleation score stood at 0.579 ± 0.49.

Consider CKGLNMFLLFSHSHSCMLRG, for which the amyloid nucleation score is -1.35 ± 0.39.

The substance CKLEQYRASWINLVTHLDEA gave an amyloid nucleation score of 0.073 ± 0.63.

In turn, CKSSARLIDYTS had an amyloid nucleation score of -0.682 ± 0.45.

CKVHFW: the amyloid nucleation score worked out at 0.596 ± 0.62.

In turn, CKWTSKIWMRLVRKSEMSVE gave an amyloid nucleation score of 1.16 ± 0.27.

The substance CLAFNFVFIHPSTGAFSRTS had an amyloid nucleation score of 8.38 ± 0.072.

CLAPFHYDQYCKWESDSVSR came in with an amyloid nucleation score of -0.438 ± 0.44.

CLDPTDTMMRW yielded an amyloid nucleation score of 0.82 ± 0.3.

CLIAVNTKGRVVHVYGRTGG displayed an amyloid nucleation score of 3.53 ± 0.093.

CLISRLIVL registered an amyloid nucleation score of -0.038 ± 0.79.

CLITLLIMECKYAVDLWGSV returned an amyloid nucleation score of 1.04 ± 0.34.

For the substance CLLHGCHYLSSYLKFSQSWL, the amyloid nucleation score entry is “inactive”.

For the substance CLMWVISNSYNECHLGEVGQ, the amyloid nucleation score turned out to be 6.56 ± 0.087.

In the case of CLPETLVDFWFKAHDAFNFV, the amyloid nucleation score entry is “inactive”.

In turn, CLQCYYRMSDNCFHSTA showed an amyloid nucleation score of 5.114 ± 0.04.

CLSLFTSYV gave an amyloid nucleation score of 0.415 ± 0.31.

Take CLSPW: the amyloid nucleation score is 0.202 ± 0.46.

Turning to CMARPMSVLECHSCWEDALG, the amyloid nucleation score turned out to be 0.221 ± 0.31.

The substance CMDYHICHIM returned an amyloid nucleation score of 3.89 ± 0.11.

For CMKAYKIRLLVLEDINSSFS, the amyloid nucleation score was -1.85 ± 0.48.

CMKEMLVMLTCYICVSKSLI displayed an amyloid nucleation score of 3.66 ± 0.079.

Take CMLCARLHH: the amyloid nucleation score turned out to be 4.13 ± 0.056.

In the case of CMYVLFLRWLNQAM, the amyloid nucleation score result was “inactive”.

Turning to CNDGGENGWKCTGR, the amyloid nucleation score is 0.497 ± 0.57.

In the case of CNIAPASKFSIIMPRR, the amyloid nucleation score came out at 3.74 ± 0.11.

In turn, CNMIYNDKSLPKW gave an amyloid nucleation score of -0.26 ± 0.32.

For the substance CNPASYMSALVGGSVSRDSR, the amyloid nucleation score was -0.076 ± 0.46.

Consider CNRPGSGTHGRCTVMDSTMG, for which the amyloid nucleation score worked out at 0.389 ± 0.56.

As for CNRSCLLGDNPCTVWRITLF, the amyloid nucleation score is -0.644 ± 0.48.

In turn, CNSDGWCRIGSAVLPVRSID yielded an amyloid nucleation score of -0.441 ± 0.35.

CNSIDMTHKVTLKMSFIFIE registered an amyloid nucleation score of 6.703 ± 0.061.

CNSYEYLRN: the amyloid nucleation score is -0.035 ± 0.76.

In turn, CNTCLLSFG returned an amyloid nucleation score of 0.814 ± 0.25.

Regarding CNTRRLISMRI, the amyloid nucleation score was -0.234 ± 0.65.

Consider CNYRVA, for which the amyloid nucleation score is 0.276 ± 0.39.

In the case of CNYYFVKYQGINGCGTPVKF, the amyloid nucleation score amounted to 3.01 ± 0.12.

As for CPDHNGRFGSWVGEYHVGLS, the amyloid nucleation score was found to be 1.43 ± 0.17.
